Data on 4 molecules can be found in patent US20170240648A1 (KOLLTAN PHARMACEUTICALS, published 2017).

Assay [1] has as its target T1, ErbB3 extracellular domain, His-tagged (human, UniProt P21860 20-643).
T1 construct: Expressed in baculovirus-infected Sf9 cells and de-glycosylated for crystallography; also called ErbB3-ECD; ErbB3 ECD; not shown: C-terminal hexa-histidine tag, told in words only
Kind of assay: SPR (BIAcore T100, 25 C), 2C2 Fab immobilised on CM5 chip, ErbB3 ECD in flow.

The target in assay [2] is T2, ErbB3 domain III, His-tagged (human, UniProt P21860 329-521).
T2 construct: also called purified domain III; D3; not shown: His tag
The experiment in a line: SPR (BIAcore T100, 25 C), 2C2 Fab immobilised on CM5 chip, ErbB3 domain III in flow. For orientation: SPR reads the build-up and loss of mass on a sensor chip optically.

Assay [3] deals with T3, ErbB3 domain IV, His-tagged (human, UniProt P21860 522-643).
T3 construct: also called D4; not shown: His tag
Kind of assay: ELISA, His-tagged ErbB3 domain IV coated on the plate, 2C2 titrated, HRP anti-human secondary antibody, chemiluminescence. (In general: In an ELISA, binding on a coated surface is turned into a signal by an enzyme label.)

In assay [4] the target is T4, ErbB3 domain II, His-tagged (human, UniProt P21860 202-328).
T4 construct: also called D2; not shown: His tag
Kind of assay: ELISA, His-tagged ErbB3 domain II coated on the plate, 2C2 titrated, HRP anti-human secondary antibody, chemiluminescence.

Assay [5] concerns the target T5, ErbB3 domain I, His-tagged (human, UniProt P21860 20-201).
T5 construct: also called D1; not shown: His tag
The experiment in a line: ELISA, His-tagged ErbB3 domain I coated on the plate, 2C2 titrated, HRP anti-human secondary antibody, chemiluminescence.

Assay [6] has as its target T2, ErbB3 domain III, His-tagged. Kind of assay: ELISA, His-tagged ErbB3 domain III coated on the plate, 2C2 titrated, HRP anti-human secondary antibody, chemiluminescence.
Assay [7] addresses T6, cell-surface expressed ErbB3 (Homo sapiens (Human), UniProt P21860 20-1342).
T6 construct: also called HER3
The experiment in a line: flow cytometry, Alexa-647-labelled 2C2 titrated on BaF3 cells co-expressing ErbB2 and ErbB3, on ice; single-site binding isotherm.

The target of assay [8] is T1, ErbB3 extracellular domain, His-tagged. Kind of assay: SPR (BIAcore T100), Fab immobilised on a CM5 chip, ErbB3-ECD passed over in rising concentrations, long dissociation, 1:1 binding model.

B1: 2C2 Fab (Fab, V domains shown)
VH: EVQLLESGGGLVQPGGSLRLSCAASGFTFSYYYMQWVRQAPGKGLEWVSYIGSSGGVTNYADSVKGRFTISRDNSKNTLYLQMNSLRAEDTAVYYCARVGLGDAFDIWGQGTMVTVSS
VL: QSVLTQPPSASGTPGQRVTISCSGSLSNIGLNYVSWYQQLPGTAPKLLISRNNQRPSGVPDRFSGSKSGTSASLAISGLRSEDEADYYCAAWDDSPPGEAFGGGTKLTVL
notes: Fab expressed in E. coli (pET26b, pelB signal peptide); also called Fab fragment of 2C2; Fab 2C2
For orientation: Kd means the free concentration of one partner at which half of the binding sites on the other are occupied at equilibrium, for simple one-to-one binding. Take B1: the Kd in assay [1] was 0.166 nM; in assay [2], 0.377 nM.

B2: 2C2 antibody (whole antibody used in the examples was 2C2-YTE) (antibody, V domains shown)
VH: EVQLLESGGGLVQPGGSLRLSCAASGFTFSYYYMQWVRQAPGKGLEWVSYIGSSGGVTNYADSVKGRFTISRDNSKNTLYLQMNSLRAEDTAVYYCARVGLGDAFDIWGQGTMVTVSS
VL: QSVLTQPPSASGTPGQRVTISCSGSLSNIGLNYVSWYQQLPGTAPKLLISRNNQRPSGVPDRFSGSKSGTSASLAISGLRSEDEADYYCAAWDDSPPGEAFGGGTKLTVL
notes: Whole anti-ErbB3 antibody of WO 2013/078191
The term EC50 (read off the curve) denotes the concentration needed to bring the measured effect to its halfway point. On to B2, for which the binding result in assay [3], in assay [4] and in assay [5] was “no binding (tested: about 60 nM (log nM about 1.8))” in each case. Besides, in assay [6], the “EC50 (read off the curve)” value is around 0.5 nM. Moreover, the Kd in assay [7] was 0.08 nM.

B3: S25H Fab (Fab, V domains shown)
VH: EVQLLESGGGLVQPGGSLRLSCAASGFTFSYYYMQWVRQAPGKGLEWVSYIGSSGGVTNYADSVKGRFTISRDNSKNTLYLQMNSLRAEDTAVYYCARVGLGDAFDIWGQGTMVTVSS
VL: QSVLTQPPSASGTPGQRVTISCSGHLSNIGLNYVSWYQQLPGTAPKLLISRNNQRPSGVPDRFSGSKSGTSASLAISGLRSEDEADYYCAAWDDSPPGEAFGGGTKLTVL
notes: 2C2 Fab variant with serine to histidine at residue 25 of the light chain (CDR1), made by QuikChange mutagenesis; also called S25H Fab antibody
The koff is a measure of how fast the partners let go of each other. Regarding B3, the koff in assay [8] worked out at 5.5e-05 s⁻¹.

B4: S23R Fab (Fab, V domains shown)
VH: EVQLLESGGGLVQPGGSLRLSCAASGFTFSYYYMQWVRQAPGKGLEWVSYIGSSGGVTNYADSVKGRFTISRDNSKNTLYLQMNSLRAEDTAVYYCARVGLGDAFDIWGQGTMVTVSS
VL: QSVLTQPPSASGTPGQRVTISCRGSLSNIGLNYVSWYQQLPGTAPKLLISRNNQRPSGVPDRFSGSKSGTSASLAISGLRSEDEADYYCAAWDDSPPGEAFGGGTKLTVL
notes: 2C2 Fab variant with serine to arginine at residue 23 of the light chain (CDR1); also called S23R Fab antibody
In assay [8], B4 registered a koff of 8.3e-05 s⁻¹.
